Source: publication PMC8266045, “MT1-MMP-dependent ECM processing regulates laminB1 stability and mediates replication fork restart” (PLoS ONE, 2021)

B1: laminB1 (natural protein, human (endogenous in MDA-MB-231), UniProt P20700 1-586, looked up)
chain: MATATPVPPRMGSRAGGPTTPLSPTRLSRLQEKEELRELNDRLAVYIDKVRSLETENSALQLQVTEREEVRGRELTGLKALYETELADARRALDDTARERAKLQIELGKCKAEHDQLLLNYAKKESDLNGAQIKLREYEAALNSKDAALATALGDKKSLEGDLEDLKDQIAQLEASLAAAKKQLADETLLKVDLENRCQSLTEDLEFRKSMYEEEINETRRKHETRLVEVDSGRQIEYEYKLAQALHEMREQHDAQVRLYKEELEQTYHAKLENARLSSEMNTSTVNSAREELMESRMRIESLSSQLSNLQKESRACLERIQELEDLLAKEKDNSRRMLTDKEREMAEIRDQMQQQLNDYEQLLDVKLALDMEISAYRKLLEGEEERLKLSPSPSSRVTVSRASSSRSVRTTRGKRKRVDVEESEASSSVSISHSASATGNVCIEEIDVDGKFIRLKNTSEQDQPMGGWEMIRKIGDTSVSYKYTSRYVLKAGQTVTIWAANAGVTASPPTDLIWKNQNSWGTGEDVKVILKNSQGEEVAQRSTVFKTTIPEEEEEEEEAAGVVVEEELFHQQGTPRASNRSCAIM
notes: Lamin B1, nuclear envelope intermediate filament protein, endogenous in human MDA-MB-231 breast cancer cells; The introduction says that laminB1 is tethered to the membrane via a farnesyl group; nothing is said of the modification state in the co-IP; also called LMNB1; source: endogenous, MDA-MB-231 lysate (RIPA buffer)
B2: Focal Adhesion Kinase (natural protein, human (endogenous in MDA-MB-231), UniProt Q05397 1-1052, looked up)
chain: MAAAYLDPNLNHTPNSSTKTHLGTGMERSPGAMERVLKVFHYFESNSEPTTWASIIRHGDATDVRGIIQKIVDSHKVKHVACYGFRLSHLRSEEVHWLHVDMGVSSVREKYELAHPPEEWKYELRIRYLPKGFLNQFTEDKPTLNFFYQQVKSDYMLEIADQVDQEIALKLGCLEIRRSYWEMRGNALEKKSNYEVLEKDVGLKRFFPKSLLDSVKAKTLRKLIQQTFRQFANLNREESILKFFEILSPVYRFDKECFKCALGSSWIISVELAIGPEEGISYLTDKGCNPTHLADFTQVQTIQYSNSEDKDRKGMLQLKIAGAPEPLTVTAPSLTIAENMADLIDGYCRLVNGTSQSFIIRPQKEGERALPSIPKLANSEKQGMRTHAVSVSETDDYAEIIDEEDTYTMPSTRDYEIQRERIELGRCIGEGQFGDVHQGIYMSPENPALAVAIKTCKNCTSDSVREKFLQEALTMRQFDHPHIVKLIGVITENPVWIIMELCTLGELRSFLQVRKYSLDLASLILYAYQLSTALAYLESKRFVHRDIAARNVLVSSNDCVKLGDFGLSRYMEDSTYYKASKGKLPIKWMAPESINFRRFTSASDVWMFGVCMWEILMHGVKPFQGVKNNDVIGRIENGERLPMPPNCPPTLYSLMTKCWAYDPSRRPRFTELKAQLSTILEEEKAQQEERMRMESRRQATVSWDSGGSDEAPPKPSRPGYPSPRSSEGFYPSPQHMVQTNHYQVSGYPGSHGITAMAGSIYPGQASLLDQTDSWNHRPQEIAMWQPNVEDSTVLDLRGIGQVLPTHLMEERLIRQQQEMEEDQRWLEKEERFLKPDVRLSRGSIDREDGSLQGPIGNQHIYQPVGKPDPAAPPKKPPRPGAPGHLGSLASLSSPADSYNEGVKLQPQEISPPPTANLDRSNDKVYENVTGLVKAVIEMSSKIQPAPPEEYVPMVKEVGLALRTLLATVDETIPLLPASTHREIEMAQKLLNSDLGELINKMKLAQQYVMTSLQQEYKKQMLTAAHALAVDAKNLLDVIDQARLKMLGQTRPH
notes: Focal adhesion kinase (FAK), endogenous in human MDA-MB-231 breast cancer cells; Endogenous protein; also called FAK; source: endogenous, MDA-MB-231 lysate (RIPA buffer)

How the values were obtained:
Focal Adhesion Kinase = target: B2; test: co-IP; MDA-MB-231 lysate in RIPA buffer (50mM Tris HCl pH 8, 150 mM NaCl, 1% NP-40, 0.5% sodium deoxycholate); immunoprecipitated overnight at 4°C with FAK antibody; immunoblot with anti FAK and anti laminB1; IgG as negative control; conditions: partners not purified
laminB1 = target: B1; test: co-IP; MDA-MB-231 lysate in RIPA buffer (50mM Tris HCl pH 8, 150 mM NaCl, 1% NP-40, 0.5% sodium deoxycholate); immunoprecipitated overnight at 4°C with laminB1 antibody; immunoblot with anti FAK and anti laminB1; IgG as negative control; conditions: partners not purified

## B1
Focal Adhesion Kinase
  enrichment versus input: 5.5 ± 0.4 fold versus input

## B2
laminB1
  enrichment versus input: 6.4 ± 1.05 fold versus input
